Laboratory results published in paper PMC8812686 (Proceedings of the National Academy of Sciences of the …, 2022).

Target: the molecule itself
Assay: SEC

Protein	stoichiometry N
HCcmL, CcmL with a pentahistidine tag (Histag) inserted between D33 and G34 (natural protein, Thermosynechococcus elongatus BP-1) MKIARVCGTVTSTQKEDTLTGVKFLVLQYLGEDHHHHHGEFLPDYEVAADTVGAGQDEWVLVSRGSAARHIINGTDKPIDAAVVAIIDTVSRDNYLLYSKRTQY	5
CcmL, pentameric vertex protein of the β-carboxysome from Thermosynechococcus elongatus BP-1 (natural protein) MKIARVCGTVTSTQKEDTLTGVKFLVLQYLGEDGEFLPDYEVAADTVGAGQDEWVLVSRGSAARHIINGTDKPIDAAVVAIIDTVSRDNYLLYSKRTQY	5
